Test results as given in patent US20140087995A1 (published 2014).
Numbered stars: 1 amine (or outer) side, 2 acyl side, 3 side chain; on linkers, the order of the positions; unused ones are H or OH. Bridge positions count the residues as written; N and C are the ends. Side chains are listed from the residue outwards. Ends that are not written are not given here. * marks the point of attachment. C20 diacid = O=C(O)CCCCCCCCCCCCCCCCCCC(=O)*; γGlu = O=C(O)[C@H](CCC(=O)[*:2])N[*:1]; AEEA = NCCOCCOCC(=O)O

T1: rat calcitonin receptor (rat, UniProt P32214 25-516)
T1 construct: whole, on cells; Used as membranes prepared from the transfected cells (Assay VIII); also called rCTR; rat calcitonin (a) receptor
T1 sequence (looked up): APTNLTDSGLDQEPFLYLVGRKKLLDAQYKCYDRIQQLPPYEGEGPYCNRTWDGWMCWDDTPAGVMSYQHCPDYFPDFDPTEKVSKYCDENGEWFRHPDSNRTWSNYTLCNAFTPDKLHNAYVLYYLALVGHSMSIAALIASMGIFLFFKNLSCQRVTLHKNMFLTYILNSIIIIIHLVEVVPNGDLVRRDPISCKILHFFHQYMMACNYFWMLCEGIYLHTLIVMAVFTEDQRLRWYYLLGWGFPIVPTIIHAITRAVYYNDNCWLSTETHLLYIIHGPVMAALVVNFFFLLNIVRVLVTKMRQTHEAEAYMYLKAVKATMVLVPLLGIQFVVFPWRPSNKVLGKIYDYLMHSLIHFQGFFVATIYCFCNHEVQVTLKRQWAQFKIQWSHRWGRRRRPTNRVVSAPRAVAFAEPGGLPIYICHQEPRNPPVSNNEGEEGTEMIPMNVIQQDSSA

T2: human amylin 3(a) receptor (human calcitonin receptor co-expressed with RAMP-3) (human, UniProt P30988 25-474; O60896 24-148, limits assumed)
T2 sequence (looked up) 1: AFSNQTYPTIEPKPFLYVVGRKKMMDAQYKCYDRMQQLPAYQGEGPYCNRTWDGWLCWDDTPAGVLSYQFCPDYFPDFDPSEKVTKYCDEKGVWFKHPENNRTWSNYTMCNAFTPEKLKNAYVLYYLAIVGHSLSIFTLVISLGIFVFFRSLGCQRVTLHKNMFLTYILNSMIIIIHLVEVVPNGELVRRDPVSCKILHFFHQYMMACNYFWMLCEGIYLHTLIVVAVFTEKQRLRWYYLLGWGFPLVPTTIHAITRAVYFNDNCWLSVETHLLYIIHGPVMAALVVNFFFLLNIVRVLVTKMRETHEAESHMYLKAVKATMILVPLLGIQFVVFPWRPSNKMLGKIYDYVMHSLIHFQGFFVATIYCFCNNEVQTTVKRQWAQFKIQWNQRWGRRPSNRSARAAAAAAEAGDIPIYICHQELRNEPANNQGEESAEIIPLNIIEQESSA
T2 sequence (looked up) 2: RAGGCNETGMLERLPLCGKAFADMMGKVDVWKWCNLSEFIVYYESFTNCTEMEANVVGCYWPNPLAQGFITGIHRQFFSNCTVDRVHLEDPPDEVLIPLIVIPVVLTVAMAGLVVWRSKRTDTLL

T3: human calcitonin receptor (human, UniProt P30988 25-474)
T3 construct: whole, on cells; Used as membranes prepared from the transfected cells (Assay VII); also called hCTR; hCT
T3 sequence (looked up): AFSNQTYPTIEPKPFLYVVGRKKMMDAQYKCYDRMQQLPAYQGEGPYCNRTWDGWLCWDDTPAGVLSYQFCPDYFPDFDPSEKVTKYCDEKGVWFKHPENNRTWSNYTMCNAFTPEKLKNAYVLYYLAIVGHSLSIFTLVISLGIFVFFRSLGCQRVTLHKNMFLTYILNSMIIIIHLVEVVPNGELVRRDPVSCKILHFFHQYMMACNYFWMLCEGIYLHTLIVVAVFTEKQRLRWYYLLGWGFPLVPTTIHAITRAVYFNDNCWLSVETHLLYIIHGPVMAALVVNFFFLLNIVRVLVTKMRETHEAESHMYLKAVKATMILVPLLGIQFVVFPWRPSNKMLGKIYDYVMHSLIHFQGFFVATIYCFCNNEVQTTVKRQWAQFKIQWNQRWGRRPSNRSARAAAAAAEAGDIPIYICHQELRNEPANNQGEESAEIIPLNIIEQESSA

T4: rat amylin receptor (rat calcitonin receptor + rat RAMP 3) (rat, UniProt P32214 25-516; Q9JJ73 23-147)
T4 construct: whole, on cells; Used as membranes prepared from the transfected cells (Assay VI); also called rAmylin-R; rat amylin 3(a) receptor
T4 sequence (looked up) 1: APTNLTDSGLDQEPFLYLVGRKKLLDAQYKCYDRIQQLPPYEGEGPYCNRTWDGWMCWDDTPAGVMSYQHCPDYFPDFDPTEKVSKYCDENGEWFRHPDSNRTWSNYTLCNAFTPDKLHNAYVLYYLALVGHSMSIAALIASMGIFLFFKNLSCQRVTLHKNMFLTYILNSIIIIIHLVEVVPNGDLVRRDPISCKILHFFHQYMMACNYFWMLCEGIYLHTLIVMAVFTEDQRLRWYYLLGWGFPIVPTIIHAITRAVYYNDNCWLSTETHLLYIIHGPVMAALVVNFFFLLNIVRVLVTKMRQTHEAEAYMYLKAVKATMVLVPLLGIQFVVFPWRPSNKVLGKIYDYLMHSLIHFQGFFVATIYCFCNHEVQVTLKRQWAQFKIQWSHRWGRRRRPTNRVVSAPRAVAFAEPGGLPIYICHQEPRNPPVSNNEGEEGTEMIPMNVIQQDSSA
T4 sequence (looked up) 2: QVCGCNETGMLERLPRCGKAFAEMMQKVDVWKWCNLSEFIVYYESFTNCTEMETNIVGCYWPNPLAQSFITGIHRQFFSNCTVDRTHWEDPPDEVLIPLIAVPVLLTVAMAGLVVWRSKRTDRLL

T5: human calcitonin receptor (human, UniProt P30988 25-474)
T5 sequence (looked up): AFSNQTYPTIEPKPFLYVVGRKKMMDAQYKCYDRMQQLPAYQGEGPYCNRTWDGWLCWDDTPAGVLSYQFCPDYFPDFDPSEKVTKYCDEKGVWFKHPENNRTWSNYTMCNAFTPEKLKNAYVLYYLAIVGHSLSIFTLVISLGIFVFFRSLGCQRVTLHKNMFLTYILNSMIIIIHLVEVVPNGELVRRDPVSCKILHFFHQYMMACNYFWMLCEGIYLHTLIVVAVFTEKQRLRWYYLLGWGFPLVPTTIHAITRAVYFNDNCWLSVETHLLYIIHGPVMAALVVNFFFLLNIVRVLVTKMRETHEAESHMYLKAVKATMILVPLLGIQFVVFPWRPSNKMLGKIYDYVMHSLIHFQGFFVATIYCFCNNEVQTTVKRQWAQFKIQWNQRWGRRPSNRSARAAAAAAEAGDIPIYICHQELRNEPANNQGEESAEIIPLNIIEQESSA

B1: N^ε1-[(4S)-4-carboxy-4-(19-carboxynonadecanoylamino)butanoyl]-[Glu14,Arg17,Pro21,Pro27,Pro34,Arg35]-h-amylin (peptide)
peptide: K([γGlu-C20 diacid])CNTATCATQRLAEFLRHSSPNFGAIPSSTNVGPRTY-NH2
modifications: disulfide 2-7; N-terminus assumed
SMILES: CC[C@H](C)[C@H](NC(=O)[C@H](C)NC(=O)CNC(=O)[C@H](Cc1ccccc1)NC(=O)[C@H](CC(N)=O)NC(=O)[C@@H]1CCCN1C(=O)[C@H](CO)NC(=O)[C@H](CO)NC(=O)[C@H](Cc1c[nH]cn1)NC(=O)[C@H](CCCNC(=N)N)NC(=O)[C@H](CC(C)C)NC(=O)[C@H](Cc1ccccc1)NC(=O)[C@H](CCC(=O)O)NC(=O)[C@H](C)NC(=O)[C@H](CC(C)C)NC(=O)[C@H](CCCNC(=N)N)NC(=O)[C@H](CCC(N)=O)NC(=O)[C@@H](NC(=O)[C@H](C)NC(=O)[C@@H]1CSSC[C@H](NC(=O)[C@@H](N)CCCCNC(=O)CC[C@H](NC(=O)CCCCCCCCCCCCCCCCCCC(=O)O)C(=O)O)C(=O)N[C@@H](CC(N)=O)C(=O)N[C@@H]([C@@H](C)O)C(=O)N[C@@H](C)C(=O)N[C@@H]([C@@H](C)O)C(=O)N1)[C@@H](C)O)C(=O)N1CCC[C@H]1C(=O)N[C@@H](CO)C(=O)N[C@@H](CO)C(=O)N[C@H](C(=O)N[C@@H](CC(N)=O)C(=O)N[C@H](C(=O)NCC(=O)N1CCC[C@H]1C(=O)N[C@@H](CCCNC(=N)N)C(=O)N[C@H](C(=O)N[C@@H](Cc1ccc(O)cc1)C(N)=O)[C@@H](C)O)C(C)C)[C@@H](C)O
notes: not restated for each compound
B2: N^α1-[(4S)-4-carboxy-4-(19-carboxynonadecanoylamino)butanoyl]-[Glu14,Arg17,Pro21,Pro25,Pro28,Pro29,Pro37]-h-amylin (peptide)
peptide: {C20 diacid-γGlu}-KCNTATCATQRLAEFLRHSSPNFGPILPPTNVGSNTP-NH2
modifications: disulfide 2-7
SMILES: CC[C@H](C)[C@H](NC(=O)[C@@H]1CCCN1C(=O)CNC(=O)[C@H](Cc1ccccc1)NC(=O)[C@H](CC(N)=O)NC(=O)[C@@H]1CCCN1C(=O)[C@H](CO)NC(=O)[C@H](CO)NC(=O)[C@H](Cc1c[nH]cn1)NC(=O)[C@H](CCCNC(=N)N)NC(=O)[C@H](CC(C)C)NC(=O)[C@H](Cc1ccccc1)NC(=O)[C@H](CCC(=O)O)NC(=O)[C@H](C)NC(=O)[C@H](CC(C)C)NC(=O)[C@H](CCCNC(=N)N)NC(=O)[C@H](CCC(N)=O)NC(=O)[C@@H](NC(=O)[C@H](C)NC(=O)[C@@H]1CSSC[C@H](NC(=O)[C@H](CCCCN)NC(=O)CC[C@H](NC(=O)CCCCCCCCCCCCCCCCCCC(=O)O)C(=O)O)C(=O)N[C@@H](CC(N)=O)C(=O)N[C@@H]([C@@H](C)O)C(=O)N[C@@H](C)C(=O)N[C@@H]([C@@H](C)O)C(=O)N1)[C@@H](C)O)C(=O)N[C@@H](CC(C)C)C(=O)N1CCC[C@H]1C(=O)N1CCC[C@H]1C(=O)N[C@H](C(=O)N[C@@H](CC(N)=O)C(=O)N[C@H](C(=O)NCC(=O)N[C@@H](CO)C(=O)N[C@@H](CC(N)=O)C(=O)N[C@H](C(=O)N1CCC[C@H]1C(N)=O)[C@@H](C)O)C(C)C)[C@@H](C)O
notes: also called compound 4
B3: N^ε1-[2-[2-[2-[[2-[2-[2-[[(4S)-4-carboxy-4-(19-carboxynonadecanoylamino)butanoyl]amino]ethoxy]ethoxy]acetyl]amino]ethoxy]ethoxy]acetyl]-[Arg17,Pro21,Pro27,Pro34 … (peptide)
peptide: K([AEEA-AEEA-γGlu-C20 diacid])CNTATCATQRLANFLRHSSPNFGAIPSSTNVGPNTY-NH2
modifications: disulfide 2-7 (inferred)
notes: also called compound 98
B4: N^ε1-[(4S)-4-carboxy-4-[[(4S)-4-carboxy-4-(19-carboxynonadecanoylamino)butanoyl]amino]butanoyl]-[Glu14,Arg17,Pro21,Pro27,His34,Glu35]-h-amylin (peptide)
peptide: K([γGlu-γGlu-C20 diacid])CNTATCATQRLAEFLRHSSPNFGAIPSSTNVGHETY-NH2
modifications: disulfide 2-7 (inferred)
B5: N^ε1-[2-[2-[2-[[2-[2-[2-[[(4S)-4-carboxy-4-(19-carboxynonadecanoylamino)butanoyl]amino]ethoxy]ethoxy]acetyl]amino]ethoxy]ethoxy]acetyl]-[Arg17,Pro21,Pro27,Pro31 … (peptide)
peptide: K([AEEA-AEEA-γGlu-C20 diacid])CNTATCATQRLANFLRHSSPNFGAIPSSTPVGSNTY-NH2
modifications: disulfide 2-7 (inferred)
notes: also called compound 96
B6: N^ε1-[(4S)-4-carboxy-4-[[(4S)-4-carboxy-4-(19-carboxynonadecanoylamino)butanoyl]amino]butanoyl]-[Arg17,Pro21,Pro27,Pro31,Pro34,Arg35]-h-amylin (peptide)
peptide: K([γGlu-γGlu-C20 diacid])CNTATCATQRLANFLRHSSPNFGAIPSSTPVGPRTY-NH2
modifications: disulfide 2-7 (inferred)
B7: N^ε1-[(4S)-4-carboxy-4-[[(4S)-4-carboxy-4-(19-carboxynonadecanoylamino)butanoyl]amino]butanoyl]-[Glu14,Arg17,Pro21,Pro27,Pro34,Arg35]-h-amylin (peptide)
peptide: K([γGlu-γGlu-C20 diacid])CNTATCATQRLAEFLRHSSPNFGAIPSSTNVGPRTY-NH2
modifications: disulfide 2-7 (inferred)
notes: also called compound 110
B8: N^ε1-[(4S)-4-carboxy-4-(19-carboxynonadecanoylamino)butanoyl]-[Asp14,Arg17,Pro21,Pro27,Pro34,Arg35]-h-amylin (peptide)
peptide: K([γGlu-C20 diacid])CNTATCATQRLADFLRHSSPNFGAIPSSTNVGPRTY-NH2
modifications: disulfide 2-7 (inferred)
B9: N^ε1-[2-[2-[2-(19-carboxynonadecanoylamino)ethoxy]ethoxy]acetyl]-[Arg17,Pro21,Pro27,His34]-h-amylin (peptide)
peptide: K([AEEA-C20 diacid])CNTATCATQRLANFLRHSSPNFGAIPSSTNVGHNTY-NH2
modifications: disulfide 2-7 (inferred)
notes: also called compound 91

What follows are binders tested against T1, rat calcitonin receptor (assay: SPA competition binding, displacement of 125I-calcitonin from membranes of BHK tk'ts 13 cells transfected with rat calcitonin receptor (Assay VIII)).

Binder	IC50 [nM]
B1	15.4

These binders were tested against T1, rat calcitonin receptor (assay: ratio of IC50 on rat calcitonin receptor (Assay VIII) to IC50 on rat amylin receptor (Assay VI)).

Binder	Ratio rCT/rAmylin binding
B1	45.5

Each binder was assayed against T2, human amylin 3(a) receptor (human …) (assay: cell-based or functional assay).

Binder	Ratio hCT/hAmylin funct.
B2	1.2

Each binder was assayed against T3, human calcitonin receptor (assay: ratio of IC50 on human calcitonin receptor (Assay VII) to IC50 on human amylin receptor (Assay V)).
Outline: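 Scintillation proximity competition binding on cell membranes at 35 ng/μL with SPA beads, in 50 mM Hepes pH 7.4, 1 mM CaCl2, 5 mM MgCl₂, 0.1% OA, 0.02% Tween20. Incubated 120 min at 25° C with shaking. IC₅₀ from one-site competition fit.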

Binder	Ratio hCT/hAmylin binding
B1	38.6

What follows are binders tested against T4, rat amylin receptor (rat calcitonin …) (assay: SPA competition binding, displacement of 125I-rat amylin from membranes of BHK tk'ts 13 cells transfected with rat calcitonin receptor + rat RAMP 3 (Assay VI)).

Binder	IC50 [nM]
B1	0.339

The binders below were run against T5, human calcitonin receptor (assay: cell-based or functional assay).

Binder	Ratio hCT/hAmylin funct.
B3	19.5
B4	15.8
B5	21
B6	26
B7	29.3
B8	24.9
B9	36.9
